Experimental findings from the NTF2 design screens of Basanta et al. (2020) are described below.

The nature of this data set: protease stability score; higher = more stable; yeast display proteolysis, trypsin and chymotrypsin.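 Also: log10 excess protease needed over predicted unfolded state with 0 meaning unfolded.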
“DEKEEAEKFFEQYKHALHRGDPDQMANLADKDVRAEIGDKVVHGRDQLMTYVKTLKEHYDDISLKLKDVQVSGDKAQLHAVLTLNHNGKNDKIHIVIRMVRQGDELVMTSITYR”: the protease stability score was 0.935. Under “DEEVAKKMMEAWMKALQNGNDEQMKKLYDPTVRWEDGNTEKQGLEVVVKLVQTVKKKGIEFQVRKAKVKGNQVEVHYDMKVGDDTVTFTVQFRAQGGRIQEVRVEISEEARKAVKKG” stands 1.22.

With “EKHVMTRITQYERNVQNGDEDTLNEMVDKDAKINIGDKTWHGMHNAAKDWKRQKDEMRLDYRSIHVTVQGDTVRIDQVVAVERNGKPSHDRNVQIWHEDNGKVKQVEQHKRP”, the protease stability score is -0.216.

Turning to “DEELEDRWRKMLEARKTGDEDRIKENMDPNAELNVGDKTYHGHDKLAKTLVDEMRTIRVEYKKFSMDARGDTVEAKYRVIENHNGKPQEDTHRWSATNRGDKIQHVDVRSDK”, the protease stability score is -0.435.

Consider “DEHDEKIVQTFLTALRTGDEEELQKNMDPNVSVHIGDQEVNGREEIARQLKKEQDEMRVDIRRYHISAHNGRVEVRIKFTAEVNGKPNRFTVVYDFVLHNGHIEKMHVKMSREDKKKKKQ”, for which the protease stability score was -0.189. Under “DNEEEAKKFVEELKRQYDEGNEHQIANQAPENATARVGDKNYHGRENVETYLRQIVRRADTVEIRIRSVEVHGDNVVVDFHYVLEYNGTRRNVRMKLVLDDVNGRKVALVIVQS” stands 0.572. The sequence “DEEVLEEAKKRVETNDPQEFAHNVDENAEMTIGDKQYTGRDQFKHVADAWYERADKIEIKSYTTHNGKIHVNMRMRFDGRDIVFIVEFRVKNGRVQEYKFHVRDETAKTLQQQMLS” gave a protease stability score of 0.231.

Regarding “DDKDLRRVADVMETNDPDRLADLVDENARFIYGDKTYKGEKEATKVWETLYHQVDHKQIHTWDVRGDKLSVKMEMVVNGHDIQVHVRVDVRNGRIKQVELRATNEDDQRFIKRIWG”, the protease stability score was 0.218.

Regarding “DEENVKIFEEFLRAEQTNDPERAKELIDKDVRIRVGDKTYHGREEWVNTFEEQQRHLKVHYKHVDNTHRNGRVHVRMTFDAVTNGEPKEVTARVEAEFHNGKAKDIQVEYRG”, the protease stability score is -0.257. Regarding “DQDRLEEVRRRMTTGNPDDLRNLMDEDVTVQYGDKEVHGRDEAVDRLEKLLRQVDHLRIDSMDAHGDEFNVHLSAVVNGRQVNFVVSLRIHNGKIKHFMQQATDEDQQKRLEHAWD”, the protease stability score came to 1.23. The value for “DEEAHEVIDTLRKAQETGDRNTARSLIDPNATFQVGDNVIRGREEYVRDLVRHRDQIRVELKHLSQTFSNGKMRMTQEAVYDINGRPDRVEFTASATIHNGRVKHMTVQVPPEQVKRLER” was -0.181; that for “DEEEDAEKLLERREKVFRQGDPDQMQRMMDPNARIKVGDREVHGREEVDRTLLEQARKADHIRFELKDMRVQGDKVVLDVHVKFEVNGRHQSRQVQYVAQFHNGRYTFRSARER” was 0.047; that for “DESDMKRQAELFIRAVNTGDSDKVRKMADKDAHYDVGDKEIHGRENAARWVQRLREQADEVTVRDVRVQGEKVVIDVQADVNGRDVRMDLVIEFHNGKAQEVKMKHS” was 0.025. The value for “EERVNSVAEQFLDAVHTGDPNRVREQMDKDARMHVGDTTLHGRENMANHWKTLLDEMRITFHDYRIRVTGEEVEIRADVQYNHNGRPKRRVLTYTVEADNGKIHNWKVQEDS” was 0.472; that for “DEDANRKAREYAHAREHGDPRHAREYADPNAEFTVGDKSFHGMQEDVERMERERKEMRVEIKDVQVSAHDGRLTLDLRFVKDNNGQPREVRQNVQFNIENGRATEIDVQETK” was -0.214. For “DEDALDLLEKAARAYQTGDPDQLMRNLDEDAKVDVGDKKIRGRNDARRHLQELKDKIELHLHVTEMSVQGNKVHAHFKLHSDQNGKPYHTDVEMRADVHNGRVKRMEIRTTK”, the protease stability score was -0.159. The value for “DESVENTVTEILEAEQQNNEEELRRLADPNAEVRVGEKTIHGMDEAVHQIAHELKQQRVEYSDMKISVNNGRARIDVEVEVEKNGRPHTSHYERTIEMHNGRMTHMEQRDDG” was -0.524.

In the case of “DEKKERQRAKELVKAMQHGDESKLKELLDENARLNVGDHKFHGMEEAHKTMRELWTRVDHLTVKSVDVTNGKIDIVVVFRHNGKNDRQVLEADVHNGRVRQQQIKSE”, the protease stability score was -0.14.

“DEDTLKKLFEQVFKYVQKGNTKELKKVIDESVEFQFGDHRYKGVDQYIKLIKEFKDRGVQFRVEEAQQKDDDVTMRTKIRYGNKEVTVKAQARYDGGHAKHFRVELSEEAKKALKTG”: the protease stability score turned out to be 0.292. The value for “DSDKLRKSAKKFLDLQRTGNEDELKKMIDPNAKAVVGDKEYHGSTEIAHALARMRREVDHITLDRFQFKGNRLKANMTYQHNGRRDRFVVTVTMHNGRVSHITFKST” was 0.38. The value for “DEEDDKRIAEDVVRQLQTGNPDQARDQADPNAEFRVGDRTIHGRDSFRRLMKETRDEVDKVQVQDFEMHNGHFSVNLVFNINGKEKLVHMSAQFKNGTIKHLSVQDQ” was -0.36; that for “DDELEKLITRWLEALDTNNPRQVKSNIDPNVHIEIGDKKIHGREQAMKDIHHRLERMRVEFDLKSLDSHGERASFRFRLHIRFNGRPIDIDAEVSVQVHNGKFKKMSQRISEEQAKQMSE” was 0.403. “DEKQADRAEKFMRALNEGNEDQATRLFDPNAHVVYGDTEVHGRERIRETIRNLQREMSVRYEVHRIEDRNGHVNLHADVTLQHNGRPARYVLTINVRADNGTIVSLNMRVPEEEKEKMKG” displayed a protease stability score of 0.15. The value for “DEEKILQDLIKTYQDLAKTNDFESMAKEADEDAHVNIGDKEVHGRESLNKHFRQLQKEVDHVEVDVRDYRVHGDKFEIKFVVNNQRDGQTDRKTVRIEYVQNGDKVRAKSFTTG” was -0.176.

In the case of “DEEELKTIIRDMQSNDEERLANLFDEDAKVDVGDDVLHGREDVTKFFRKVNKRIDHFEIKTYDVRGEEVEVTVEAVVNGQRIKFVWVLTIKNGKAKSAKLSVTDKKQKRILEKNMD”, the protease stability score was 1.12.

As to “DEDAKRVANEISKAFDQNDPDKARQLADENAEVQIGDKVLHGRDQATNQLERQREEQNEHVDSVEIDVDGDKLKVRIHFNSHSNGRPRRNTRTYTIVVRNGHLQHLDMKENG”, the protease stability score is -0.246.

Consider “DDEDNKRKAEEFVRLMHTGDEERIKELFDPNVKAVIGDKEYHGRDTVADWARRLREQADHFDVHRMTAQGDRVHVDMFVTHNGRTKRVVIVLKYHNGRVEEIKVQDG”, for which the protease stability score was 2.28. The value for “EKEEVKKAVEAFNENDEDELRDLVDENVKVVIGEKDYTGRETYWQFLRRMHEQIDHMHVKSVSVSNGVLRMDVEVVFNGRNVRFTIEVQAHDGQIKRVHYQARSEEQHKEFLKMLK” was 1.58.

For the sequence “EEELRHTAHELQKAYEENDPEKILENLDPNAQVQIGDRRVHGRHEIRKLMEHFERQARVRVHDVKVDVHGNKINIQVDAEQNHNGEPRSFTVQAEMTMHNGRVKSIDMKIQG”, the protease stability score turned out to be 0.612. The value for “DDTAAEVLKEQLDVLKQGDPDRVNQLVDPNAKRHVGDKNYRGMNSMADEDAQKMRNSRIKYTHWEQERSGDKVRVVVVYIEDHNGEPDTHRREFVFKASNGRFHQLNQDDDQ” was -0.232; that for “DEEVLQEYREAFEEGDEERIQNLADENVKVTYGDKDYHGRHDMRKFMKWLKRAADRIEIKRYTQTGDKLRIVVVMHVNGQTIKFSVVVRVHNGNVKSVRMDATSEEDRKHFERVVD” was 0.755.

“DEENLRTLAQEVKDILQTGDEEKLKEMLDKDVRLEVGDHVYEGSENAAKAANHWKERADHIQVDSIEIHGNELRIDVRVNVNGKNIDIDIVVTFSNGRIREMKFQYRDEDEKRQLER” showed a protease stability score of 0.809. The value for “DHERLRKLAKDFVKILKHGDPDRMRELVDKDVRVQIGDKEVHGREKVDEMVENIRHRADHIDFTSFHASNGRVTVDVVVNVDGKNTRVTWRIVMSNGRVKMIQVTDG” was 1.82; that for “DQEDLRRIAEQVNRAFEKNDHDLMRRLADKDVKFHVGEKELTGRDNLARFLQEFRRRADHITVKSFDASNGRVNADIEIDVNGQKIKLHMQAEVHNGHIKHVRFHYTDEQQLRDFLS” was 1.24.

Sequence “DEKKLKDKAETLVENFKTGNEEEFSRMADENATLVVGDKTLRGREDLQTFISEFKKTVDHVEVRHVTADNGRVTIDMVVDINGRRVRVHVVIKFKNGHIKDVRVDPRMKRAMDQ” showed a protease stability score of 0.905.

For “DEDEQRKIDETMHRLMEENNFDQLARTADENVRIVIGDKTYRGREQAVSAFRKLREHVDHADVKSVEIRNGRVLIKARLSFNGRTADVVFTFQFTNGRIQWAEVDPHAVRNARE”, the protease stability score is 1.06. Sequence “EEEVQHKIKQLLKNNDWTTLADQVDPNARMVVGDKTVTGREQIQTIARRIQERVDHVEFKQLTVQGDHIDVVMVVNINGEHIKMHFIFRVHNGHIKHVEMQATDPRDQKKLKDLLE” had a protease stability score of 1.54. The sequence “DEDRYKKLMDKAFKLIMSGDEETMIKMLKPDVQYEYIDTKYEGEQVAKVIVRIVQKVGAEVRIKRKEHKGDKARADFDYHNGDQTVRTTAEVRYEGDKLKEARVKMTDEVKKVVQRG” came in with a protease stability score of 0.028.

“DEDNHRKAKKLIDAENTGDPTQVRKLADPNVHVEYGDEHVHGRDEIANELSKKAKEIRFRVDRLSFSVHNGTFSATQRMKENDNGRPEEFRVERSMELHNGKFVSIVQKKKS”: the protease stability score was -0.071.

In turn, “DEDQVLKVIEKALKAIQQGHREEAKKLGKPNVEVQAADQRDKGPDALLKMVEQVQKVGDKFEYKETRKKGGTVTTRVEVTFGGKTVEYEVNVQAEGGKVQKWEVRIDDDFIEQVKKS” had a protease stability score of 0.671. Consider “DEENAERLKKIFRAVQENDSKQIERNFDPNAEVTYGDKTVTGREEQSREYHKILHEIRVRIQIKHVKVHNGRLSIHAKMDREHNGEPDDATLIVEAHFHNGKATEQQNDVHK”, for which the protease stability score is 0.44.

“DEHVKETFHSFLHAQTTGDPDKMHKLFDKDARVRYGDKVYHGRETLMRIFHKLRRNIRVDVKFEDIKVDNGKLHAEADMTINHDGKPRQKKVIIELVLHNGKIKQFNQELRG” registered a protease stability score of 0.723.

Take “DEKRLTELLEVMKHGDFDRLANLMDKDVRIEYGDKSVRGREQAQHLMEKQKKRADHVEWKEYHFQGDTVSVRLVVRINGKEVEYHQTYRVNNGKITDMEQRARDEDDERQLRRVEG”: the protease stability score was -0.093. Under “DDESRVRKMLEDMREQLQTGNPERVADMADPNVEVTVGDKTLRGREDLVKYWRSIAENVDRVDLKLRSLNISGDQISVDFVERNNDNGQTRKHDASARFQKDNGRILATHIHVQ” stands 0.119; under “DEHKEAEELARQLQRVARHNNPDQFAHMLDKDVKIDIGDKTVHGRENARNMMTELVKDYDSLDAKVDSFDVHNGTIDIKMTFSFNHNGKTTTTSVEFRARKHNGHVRIVYIKYG”, 0.234; under “DSDEIRKFFQQLHTNDEKKLRRNFDKDARFEVGDKDYHGQENAQEAMAQIFQRADHVTYKTVKVEGDKVDMNLQIQVNGKQFDLRLHAKFDNGRLKEASLHVTSEEQHTEVLEMLS”, 0.643. Under “DDKDRRRVAEEVVRAFVQNDPDRLVELADEDARVHYGDRELHGREKARHMLRKFKEQVDTATYQDFNVHGDKVDIKLTAHFNGRTHTQTVIVVIHNGRIKFIEIRSS” stands 1.22.
